Data as given in publication PMC7795492, “Protein Sensing Device with Multi-Recognition Ability Composed of Self-Organized Glycopeptide Bundle” (International Journal of Molecular Sciences, 2020).
Entries after “also recorded” stand apart in the source; their conditions may differ. Where two headings read alike, the source gives them in different places.

Experiments:
[1] = test system: PNA-induced glycopeptide bundle in DPPC bilayer membrane; assay: QCM binding isotherm, PNA-induced glycopeptide bundle; settings: QCM method
Excerpt: (§1) We determined binding amounts of proteins to the induced glycopeptide bundles by QCM measurements. […] The molecular weights of PNA and ConA were 98,000 [27] and […] [33], respectively, assuming that they formed tetramers.
We attempted quantitative analysis of the binding isotherms obtained from the QCM and electrochemical measurements. The curves in Figure 5 and Figure 7 were obtained by curve-fitting the experimental values using the Langmuir binding isotherm. It can be seen that both curves are in good agreement with the experimental values. […] In the electrochemical measurement, the value of ΔI corresponds to the amount of the closed channel in the formed complex between the protein and glycopeptide bundle that acted as an ion channel. ΔImax corresponds to the total channel amount. Therefore, we used ΔI and ΔImax as the binding amount and saturated binding amount, respectively, for the Langmuir binding isotherm.
(§2) For the binding isotherm parameters obtained by the QCM measurements, the saturated binding amount, Wmax, for the protein used to induce the glycopeptide bundle was slightly larger, but a systematic relationship could not be seen in the binding constants, K. However, in the parameters obtained from the electrochemical method, the binding constant, K, to the target protein used to induce the glycopeptide bundle acting as a channel, was higher than that of other proteins, and the ΔImax value corresponding to the saturated binding amount was also remarkably larger. In addition, the selective detection of the target protein to the DPPC bilayer membrane with the target protein-induced glycopeptide bundle was evaluated from the ratio to the saturated binding amounts of other proteins. For example, the value of the selectivity of PNA to ConA, of 1.34, in the QCM method of the PNA-induced sensing membrane was obtained from Wmax, PNA/Wmax, ConA.
We previously reported that heating a vesicle containing a peptide above its gel–liquid crystal transition temperature, Tc, increases the fluidity of the lipid bilayer membrane and allows the peptide to easily diffuse laterally through the membrane. At this time, if a protein that specifically interacts with the sugar chains at the terminal of the glycopeptides is present, the glycopeptides are re-arranged in the membrane, and form specific binding site to the target protein on the glycopeptide bundle. The target protein was added to aqueous solution containing DPPC vesicle with glycopeptides and a spacer peptide in the bilayer membrane. The molar ratio of the added protein to the glycopeptides was 2. The Tc of DPPC is 41 °C [41]. The vesicle solution was incubated at 60 °C above Tc for 15 min to form a glycopeptide bundle. […]

[2] = test system: ConA-induced glycopeptide bundle in DPPC bilayer membrane; assay: QCM binding isotherm, ConA-induced glycopeptide bundle; settings: QCM method, Langmuir fit, 25 °C
Excerpt: as §1
We attempted quantitative analysis of the binding isotherms obtained from the QCM and electrochemical measurements. The curves in Figure 5 and Figure 7 were obtained by curve-fitting the experimental values using the Langmuir binding isotherm. It can be seen that both curves are in good agreement with the experimental values. […]
as §2, with “For example, the value of the selectivity of PNA to ConA, of 1.34, in the QCM method of the PNA-induced sensing membrane was obtained from Wmax, PNA/Wmax, ConA.” left out

[3] = test system: PNA-induced glycopeptide bundle in DPPC bilayer membrane; type: binding; settings: Electrochemical method
Excerpt: The response current waves were very similar to those derived according to Equation (7) based on the equivalent circuit in Figure A2. The equivalent circuit was a parallel circuit consisting of a capacitor (DPPC bilayer membrane; Cmemb), a resistor (glycopeptide bundle not bound to the target protein as an open channel; Ropen), the serial circuit of a capacitor (bound target protein on glycopeptide bundle; Cprotein), and a resistor (target protein bound to the glycopeptide bundle as a closed channel; Rclose). First, we verified whether the electrochemical properties of the DPPC bilayer membrane with a target protein-induced glycopeptide bundle could be expressed by the proposed equivalent circuit. […] The sensing membrane was used containing the PNA-induced glycopeptide bundle, and the added protein was PNA. In the simulation, the resistances, Ropen = 6.00 × 10^4 Ω and Rclose = 1.73 × 10^4 Ω, and capacitances, Cmemb = 1.00 × 10^−6 F and Cprotein = 3.00 × 10^−6 F, were held constant. Furthermore, x (=ΔI/ΔImax) was calculated from the ratio of the current changes, ΔI (Figure A4), between before and after the protein was added at peak voltage applied, and the saturated current changes, ΔImax (Table 2); this is described below.
(§3) We attempted to detect the protein using the sensing membrane using the electrochemical method. From the simulation, the value of the increase in the current before and after protein addition at the peak voltage, ΔI, was proportional to the fraction of the closed channel that is protein bound glycopeptide bundle (Figure A4).
We attempted quantitative analysis of the binding isotherms obtained from the QCM and electrochemical measurements. The curves in Figure 5 and Figure 7 were obtained by curve-fitting the experimental values using the Langmuir binding isotherm. […] In the electrochemical measurement, the value of ΔI corresponds to the amount of the closed channel in the formed complex between the protein and glycopeptide bundle that acted as an ion channel. ΔImax corresponds to the total channel amount. Therefore, we used ΔI and ΔImax as the binding amount and saturated binding amount, respectively, for the Langmuir binding isotherm [36].

[4] = test system: ConA-induced glycopeptide bundle in DPPC bilayer membrane; assay: Electrochemical detection (peak current response, channel blockage), ConA-induced glycopeptide bundle; type: binding; settings: Electrochemical method, Langmuir fit, ±5 mV triangular voltage, 11.24 Hz, 0.1 M HEPES-Tris pH 7.4, 0.1 M KCl
Excerpt: as §3
The curves in Figure 5 and Figure 7 were obtained by curve-fitting the experimental values using the Langmuir binding isotherm. […] In the electrochemical measurement, the value of ΔI corresponds to the amount of the closed channel in the formed complex between the protein and glycopeptide bundle that acted as an ion channel. ΔImax corresponds to the total channel amount. Therefore, we used ΔI and ΔImax as the binding amount and saturated binding amount, respectively, for the Langmuir binding isotherm [36].
At this time, if a protein that specifically interacts with the sugar chains at the terminal of the glycopeptides is present, the glycopeptides are re-arranged in the membrane, and form specific binding site to the target protein on the glycopeptide bundle. The target protein was added to aqueous solution containing DPPC vesicle with glycopeptides and a spacer peptide in the bilayer membrane. The molar ratio of the added protein to the glycopeptides was 2. […] The vesicle solution was incubated at 60 °C above Tc for 15 min to form a glycopeptide bundle. […]

[5] = cited from earlier work
Excerpt: This implies that the proteins with the same sugar binding sites can be selectively recognized if their 3D-structures are different. […] The PNA-induced glycopeptide bundle has a spatial arrangement of galactose corresponded to its binding sites in PNA. Two ... || We used PNA (Wako Pure Chemical Industrials, Ltd., Osaka, Japan) and ConA (CALBIOCHEM, San Diego, CA, USA) as the target proteins.

[6] = PNA-induced glycopeptide bundle in DPPC bilayer, Langmuir fit, 25 °C
[7] = PNA-induced bundle, ratio of ΔImax
[8] = PNA-induced glycopeptide bundle in DPPC bilayer, Langmuir fit, ±5 mV triangular voltage, 11.24 Hz, 0.1 M HEPES-Tris pH 7.4, 0.1 M KCl

B1: PNA: peanut lectin with specific binding site for galactose (protein, UniProt P02872 24-273, looked up)
Galactose-binding lectin: AETVSFNFNSFSEGNPAINFQGDVTVLSNGNIQLTNLNKVNSVGRVLYAMPVRIWSSATGNVASFLTSFSFEMKDIKDYDPADGIIFFIAPEDTQIPAGSIGGGTLGVSDTKGAGHFVGVEFDTYSNSEYNDPPTDHVGIDVNSVDSVKTVPWNSVSGAVVKVTVIYDSSTKTLSVAVTNDNGDITTIAQVVDLKAKLPERVKFGFSASGSLGGRQIHLIRSWSFTSTLITTTRRSIDNNEKKIMNMASA
- Selectivity of PNA to BSA ([1]; PNA-induced bundle, ratio of Wmax): 2.47
- Binding preference in QCM (in words) ([1]; PNA-induced glycopeptide bundle): preferentially bound
- Binding constant, K [1, 6]: 8.2e+08 M⁻¹
- Saturated binding amount, Wmax [1, 6]: 0.47 ng
- Binding constant, K [2]: 9.5e+08 M⁻¹
- Saturated binding amount, Wmax [2]: 0.21 ng
- Selectivity of PNA to BSA [3, 7]: 17.8
- Selectivity of PNA to ConA [3, 7]: 9.53
- Binding constant, K [3, 8]: 2.1e+09 M⁻¹
- Saturated current change, ΔImax [3, 8]: 0.41 μA
- Current response / recognition (in words) ([3]; PNA-induced sensing membrane): specific response; also recorded: very large current responses
- Binding constant, K [4]: 1.1e+09 M⁻¹
- Saturated current change, ΔImax [4]: 0.035 μA
- Sugar binding specificity [5]: specific binding sites for galactose
